One sequence from patent US6465220B1, “Glycosylation using GalNac-T4 transferase” (GlycoZym ApS, priority 1998, dated 2002) can be followed below.

Common to all, as to type: biochemical
The target of test [1] is T1, GalNAc-T3 (Homo sapiens, UniProt Q14435).
T1 construct: Control constructs pAcGP67-GalNAc-T1-sol, pAcGP67-GalNAc-T2-sol, pAcGP67-GalNAc-T3-sol, and pAcGP67-O^2-sol were prepared as previously described; made in house; host or cells: insect cells (baculovirus, pAcGP67)
T1 sequence (Q14435 38-633 limits assumed): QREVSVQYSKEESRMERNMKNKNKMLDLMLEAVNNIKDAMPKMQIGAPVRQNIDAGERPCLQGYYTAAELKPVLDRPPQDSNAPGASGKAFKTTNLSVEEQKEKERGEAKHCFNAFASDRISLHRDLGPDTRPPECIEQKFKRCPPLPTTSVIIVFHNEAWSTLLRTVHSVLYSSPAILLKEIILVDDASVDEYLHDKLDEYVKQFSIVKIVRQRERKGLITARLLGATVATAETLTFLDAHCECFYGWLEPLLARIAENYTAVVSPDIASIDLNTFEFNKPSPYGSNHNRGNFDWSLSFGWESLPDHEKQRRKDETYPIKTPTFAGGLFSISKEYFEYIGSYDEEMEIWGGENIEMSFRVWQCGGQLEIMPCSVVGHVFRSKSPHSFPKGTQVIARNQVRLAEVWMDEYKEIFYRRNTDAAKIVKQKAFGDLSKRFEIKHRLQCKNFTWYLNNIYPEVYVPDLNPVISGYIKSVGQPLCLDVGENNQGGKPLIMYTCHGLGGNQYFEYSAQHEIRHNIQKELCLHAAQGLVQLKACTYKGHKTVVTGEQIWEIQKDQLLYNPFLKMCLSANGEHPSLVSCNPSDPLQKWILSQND
The test is described as follows: GalNAc-transferase assay with purified recombinant GalNAc-T3. The note with it: acceptor substrate. How it is done:
(§1) The following examples are provided to illustrate certain preferred embodiments of the invention, and should be considered as illustration and not as limitation. In the examples, GalNAc-transferase assays were performed in 50 μl total reaction mixtures containing 25 mM cacodylate (pH 7.5), 10 mM MnCl2, 0.1-0.25% Triton X-100, 150-200 μM UDP-[^14C]-GalNAc (4,000 cpm/nmole) (Amersham) and 0.06-1 mM acceptor peptides. Peptides were either synthesized or obtained from Carlbiotech (Copenhagen), or Neosystems (Strasbourg), and quality was ascertained by amino acid analysis and mass spectrometry. Peptides Muc-1a, Muc-1b, and TAP24, were derived from the tandem repeat of human MUC1, Gendler et al., J. Biol. Chem. 265:15286 (1990), and Muc2, Muc5AC, and Muc7 from the tandem repeats of MUC2, MUC5AC, and MUC7, respectively. Gum et al., J. Biol. Chem. 264:6480 (1989); Porchet et al., Biochem. Soc. Trans. 23:800 (1995); Bobek et al., J. Biol. Chem. 268:20563 (1993). GalNAc4TAP24 was produced by in vitro glycosylation using GalNAc-T2 as described in Wandall et al., J. Biol. Chem. 272:23503 (1997). Products were quantified by scintillation counting after chromatography on Dowex-1, octadecyl silica cartridges (Bakerbond), or HPLC (PC3.2/3 or mRPC C2/C18 SC2.1/10 Pharmacia, Smart System). Products produced by in vitro glycosylation were in most cases also confirmed by mass spectrometry.
(§2) In this example, GalNAc-T4 was expressed in Sf9 insect cells. Expression constructs designed to contain amino acid residues 32-578 of the coding sequence of the putative GalNAc-T4 gene shown in SEQ ID NO:1 prepared by genomic PCR of two clones containing GalNAc-T4 (described in Bennett et al. (1998), supra) were cloned into a BamHI site of the expression vector pAcGP67 (Pharmingen), and the expression construct was sequenced. The constructs pAcGP67-GalNAc-T4506Vsol and pAcGP67-GalNAc-T4506 I sol, were designed to yield a putative soluble form of the GalNAc-T4 protein with an N-terminal end positioned immediately C-terminal to a potential transmembrane domain and including the entire sequence expected to contain the catalytic domain. Control constructs pAcGP67-GalNAc-T1-sol, pAcGP67-GalNAc-T2-sol, pAcGP67-GalNAc-T3-sol, and pAcGP67-O^2-sol were prepared as previously described in White et al., J. Biol. Chem 270:24156 (1995); Bennett et al., J. Biol. Chem. 271:17006 (1996); and Bennett et al., Biochem. Biophys. Res. Comm. 211:347 (1995).

Test [2] concerns the target T2, GalNAc-T2 (Homo sapiens, UniProt Q10471).
T2 construct: Control constructs pAcGP67-GalNAc-T1-sol, pAcGP67-GalNAc-T2-sol, pAcGP67-GalNAc-T3-sol, and pAcGP67-O^2-sol were prepared as previously described; made in house; host or cells: insect cells (baculovirus, pAcGP67)
Description: GalNAc-transferase assay with purified recombinant GalNAc-T2. How it is done:
as §1, §2
Activities measured with the mucin derived substrates, Muc7, EA2, and Muc2 (see Table I for structures and SEQ ID NOs:19, 25 and 18, respectively), were only 2-7 fold over background values. Very low activities with a few other substrates were also observed, but for many of the “mucin-like” substrates a relative high background with Sf9 cells infected with irrelevant constructs made assessment difficult. GalNAc-T4 was expressed in High Five cells and purified to near homogeneity, however, very low endogenous activity was detected with some substrates in the same fractions when medium from cells infected with irrelevant expression constructs were used in the same purification strategy. The activities presented in Table I were obtained with purified GalNAc-T4 and -T2, and are expressed as mU/mg (the concentration of enzyme protein estimated by SDS-PAGE using BSA as standard). The highest activities with GalNAc-T4 were found from assays of Sf9 medium with the mucin peptides Muc7, EA2, and Muc2, however, the efficiencies with these substrates were considerably lower than GalNAc-T2.

Test [3] addresses T3, GalNAc-T1 (Homo sapiens, UniProt Q10472).
T3 construct: Control constructs pAcGP67-GalNAc-T1-sol, pAcGP67-GalNAc-T2-sol, pAcGP67-GalNAc-T3-sol, and pAcGP67-O^2-sol were prepared as previously described; made in house; host or cells: insect cells (baculovirus, pAcGP67)
T3 sequence (Q10472 41-559 limits assumed): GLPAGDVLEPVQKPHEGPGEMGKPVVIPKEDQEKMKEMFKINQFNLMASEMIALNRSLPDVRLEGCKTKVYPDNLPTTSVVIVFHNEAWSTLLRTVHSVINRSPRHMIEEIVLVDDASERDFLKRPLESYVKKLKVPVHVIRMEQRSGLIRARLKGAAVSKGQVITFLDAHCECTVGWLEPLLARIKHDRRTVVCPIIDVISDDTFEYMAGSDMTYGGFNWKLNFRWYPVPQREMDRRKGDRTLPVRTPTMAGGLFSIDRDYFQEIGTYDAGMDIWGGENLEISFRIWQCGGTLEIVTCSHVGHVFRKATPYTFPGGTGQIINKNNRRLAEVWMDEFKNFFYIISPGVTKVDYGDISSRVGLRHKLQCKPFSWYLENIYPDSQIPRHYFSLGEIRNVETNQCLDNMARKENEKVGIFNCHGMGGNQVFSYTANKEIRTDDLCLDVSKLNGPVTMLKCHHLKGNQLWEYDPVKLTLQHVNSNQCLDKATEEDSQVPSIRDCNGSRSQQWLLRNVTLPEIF
Description: GalNAc-transferase assay with purified recombinant GalNAc-T1. The note with it: acceptor substrate. The method, then:
as §1
In this example, GalNAc-T4 was expressed in Sf9 insect cells. Expression constructs designed to contain amino acid residues 32-578 of the coding sequence of the putative GalNAc-T4 gene shown in SEQ ID NO:1 prepared by genomic PCR of two clones containing GalNAc-T4 (described in Bennett et al. (1998), supra) were cloned into a BamHI site of the expression vector pAcGP67 (Pharmingen), and the expression construct was sequenced. […]

Consider “DSTTPAPTTK [EA2, mucin derived substrate]”, for which, in test [1], the Km was 460 µM and the “Vmax GalNAc-T3” value was determined as 0.96 nmol/min/µg. The “GalNAc-T2 activity with acceptor peptide” value in test [2] (0.06 mM peptide in 50-μl assay) is 152 ± 3 milliunits/mg. The “GalNAc-T2 activity with acceptor peptide” value in test [2] (0.25 mM peptide in 50-μl assay) is on record as 376 ± 5 milliunits/mg. Moreover, in test [2] (acceptor substrate), the Km is 850 µM and the “Vmax GalNAc-T2” value amounted to 1.80 nmol/min/µg. Also, in test [3], the Km came out at 70 µM and the “Vmax GalNAc-T1” value came to 0.99 nmol/min/µg.
